Molecular target: T1, IL-12 (Human IL12 (His Tag)), Sino Biological Cat. No. CT-050-H08H-20 (human, UniProt P29460 23-328; P29459 23-219)
T1 construct: Bought His-tagged p35/p40 heterodimer
T1 sequence (looked up) 1: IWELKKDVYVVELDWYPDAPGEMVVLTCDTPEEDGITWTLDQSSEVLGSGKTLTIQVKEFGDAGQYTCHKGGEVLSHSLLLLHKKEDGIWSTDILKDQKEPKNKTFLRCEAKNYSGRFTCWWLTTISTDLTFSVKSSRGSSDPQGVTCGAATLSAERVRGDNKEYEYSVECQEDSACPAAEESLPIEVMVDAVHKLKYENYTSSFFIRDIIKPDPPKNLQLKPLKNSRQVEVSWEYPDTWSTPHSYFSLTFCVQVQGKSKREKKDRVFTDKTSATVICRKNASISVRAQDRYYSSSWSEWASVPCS
T1 sequence (looked up) 2: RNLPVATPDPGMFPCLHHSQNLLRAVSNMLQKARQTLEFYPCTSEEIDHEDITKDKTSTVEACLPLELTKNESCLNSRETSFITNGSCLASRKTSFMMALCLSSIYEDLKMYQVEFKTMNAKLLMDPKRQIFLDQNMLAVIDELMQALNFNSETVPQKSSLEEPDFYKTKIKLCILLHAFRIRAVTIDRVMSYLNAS
Test: FACS competition, IL12-His (40 nM mixed 1:1) on 293T-IL-12RB1&IL-23R cells
Method: 200 μL of 1% PBSA was added into each sample, and the mixture was centrifuged at 1200 rpm for 5 min to discard the supernatant. According to experiment design, correspondingly diluted antibody (highest final concentration of 60 μg/mL, 3-fold dilution, 8 concentrations in total) and IL12-His (Sino Biological, Cat. No.: CT-050-H08H-20) (40 nM) were mixed at a ratio of 1:1, and a blank control was set. The mixture of antibody and IL12 was incubated on ice for 30 min and then added to the cell precipitate at 100 μL/sample. The resulting mixture was well mixed and incubated on ice for 60 min. 200 μL of 1% PBSA was added, and the mixture was centrifuged at 1200 rpm for 5 min to discard the supernatant, and then washed twice. THETM His tag antibody (FITC) (Genscript, Cat. No.: A01620) was diluted at a ratio of 1:500 and added to each tube at 100 μL. The mixture was well mixed and incubated on ice for 40 min in the absence of light. 200 μL of 1% PBSA was added, and the mixture was centrifuged at 1200 rpm for 5 min to discard the supernatant, and then washed twice. 1% PBSA was added at 200 μL/tube, and the cells were resuspended and transferred to a flow cytometry tube for testing.

B1: H8L15 (antibody, human IgG1, kappa, V domains shown)
VH: EVQLVQSGAEVKKPGESLKISCQSSGYTFTSYWIGWVRQMPGQGLEWIGIMSPVDSDIRYNPMFRGQVTMSVDKSSSTAYLQWSSLKASDTAMYYCARRRPGQGYFDFWGQGTMVTVSS
VL: EIVLTQSPATLSASPGERATISCRASQSVGTWVAWYQQKPGQAPRSLIYAASNLQSGIPARFSGSGSGTDFTLTISSLEPEDFAVYYCQQYNIYPYTFGQGTRLEIKR
notes: IgG1 (P01857) / kappa (P01834) constant regions
  EC50: 1.46 µg/mL

— patent US20260217813A1 (published 2026)
